These results are taken from PMC9537309, “The solution structure of Dead End bound to AU-rich RNA reveals an unusual mode of tandem RRM-RNA recognition required for mRNA regulation”.

Data set [1] addresses T1, DND1 RRM2 (human, UniProt Q8IYX4 136-227).
T1 sequence: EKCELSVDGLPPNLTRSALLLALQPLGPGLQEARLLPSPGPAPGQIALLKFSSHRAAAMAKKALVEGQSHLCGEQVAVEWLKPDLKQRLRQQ
As to the kind of experiment: NMR titration; ITC: 100 mM potassium phosphate pH 6.6, 1 mM 2-mercaptoethanol, 25 C; NMR: 100 mM potassium phosphate pH 6.6, 1 mM DTT, 298 K (or 20 mM MES pH 6.6, 100 mM NaCl); Supplementary Fig. 3: 25 mM NaCl, 2 mM DTT, pH 6.3, 303 K. The conditions noted are these: protein: recombinant; tags: N-terminal 6xHis, TEV-cleaved.

Data set [2] concerns the target T2, DND1 extended RRM1 (human, UniProt Q8IYX4 12-139).
T2 sequence: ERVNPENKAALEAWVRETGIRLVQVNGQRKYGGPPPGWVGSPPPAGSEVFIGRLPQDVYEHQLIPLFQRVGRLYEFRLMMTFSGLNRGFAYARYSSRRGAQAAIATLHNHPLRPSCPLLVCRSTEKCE
The data set is described as above. The conditions noted are these: protein: recombinant; tags: N-terminal 6xHis, TEV-cleaved.

Data set [3] addresses T3, DND1 RRM12 K197A (human, UniProt Q8IYX4 12-235, K197A).
T3 sequence: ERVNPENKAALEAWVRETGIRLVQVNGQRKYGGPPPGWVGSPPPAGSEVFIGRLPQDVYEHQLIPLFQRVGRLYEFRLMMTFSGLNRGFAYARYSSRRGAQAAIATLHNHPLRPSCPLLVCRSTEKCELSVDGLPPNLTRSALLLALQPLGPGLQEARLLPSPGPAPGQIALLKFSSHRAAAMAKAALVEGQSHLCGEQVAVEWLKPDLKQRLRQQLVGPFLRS
Description: ITC; N = 0.98; ITC: 100 mM potassium phosphate pH 6.6, 1 mM 2-mercaptoethanol, 25 C; NMR: 100 mM potassium phosphate pH 6.6, 1 mM DTT, 298 K (or 20 mM MES pH 6.6, 100 mM NaCl); Supplementary Fig. 3: 25 mM NaCl, 2 mM DTT, pH 6.3, 303 K. The conditions noted are these: protein: recombinant; tags: N-terminal 6xHis, TEV-cleaved; label: selective 13C-ribose in some structure samples; unlabeled in titrations.

The target of data set [4] is T4, DND1 RRM12 R98A (human, UniProt Q8IYX4 12-235, R98A).
T4 sequence: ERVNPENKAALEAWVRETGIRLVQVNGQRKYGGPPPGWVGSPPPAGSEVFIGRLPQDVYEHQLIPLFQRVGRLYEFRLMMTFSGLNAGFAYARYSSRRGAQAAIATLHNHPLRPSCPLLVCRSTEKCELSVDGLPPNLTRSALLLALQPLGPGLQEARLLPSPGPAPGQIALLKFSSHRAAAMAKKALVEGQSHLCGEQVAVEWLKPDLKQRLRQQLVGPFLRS
Description: NMR titration; ITC: 100 mM potassium phosphate pH 6.6, 1 mM 2-mercaptoethanol, 25 C; NMR: 100 mM potassium phosphate pH 6.6, 1 mM DTT, 298 K (or 20 mM MES pH 6.6, 100 mM NaCl); Supplementary Fig. 3: 25 mM NaCl, 2 mM DTT, pH 6.3, 303 K. The following applies: protein: recombinant; tags: N-terminal 6xHis, TEV-cleaved; label: selective 13C-ribose in some structure samples; unlabeled in titrations.

In data set [5] the target is T5, DND1 RRM12 M90A (human, UniProt Q8IYX4 12-235, M90A).
T5 sequence: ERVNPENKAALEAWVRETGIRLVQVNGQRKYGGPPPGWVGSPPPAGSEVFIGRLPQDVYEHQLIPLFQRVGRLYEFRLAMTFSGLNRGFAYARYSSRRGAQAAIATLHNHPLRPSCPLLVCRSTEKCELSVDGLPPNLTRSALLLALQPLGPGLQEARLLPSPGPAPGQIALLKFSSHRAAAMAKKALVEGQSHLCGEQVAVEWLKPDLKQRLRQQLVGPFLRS
Described as above. The following applies: protein: recombinant; tags: N-terminal 6xHis, TEV-cleaved; label: selective 13C-ribose in some structure samples; unlabeled in titrations.

The target in data set [6] is T6, DND1 RRM12 T135A (human, UniProt Q8IYX4 12-235, T135A).
T6 sequence: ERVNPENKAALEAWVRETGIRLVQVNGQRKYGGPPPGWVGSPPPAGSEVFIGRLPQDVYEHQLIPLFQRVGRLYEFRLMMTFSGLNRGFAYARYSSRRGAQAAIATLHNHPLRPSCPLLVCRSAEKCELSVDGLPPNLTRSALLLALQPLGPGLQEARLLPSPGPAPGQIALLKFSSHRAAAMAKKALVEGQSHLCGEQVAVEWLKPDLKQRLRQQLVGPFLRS
Description: NMR titration; binding not reduced; ITC: 100 mM potassium phosphate pH 6.6, 1 mM 2-mercaptoethanol, 25 C; NMR: 100 mM potassium phosphate pH 6.6, 1 mM DTT, 298 K (or 20 mM MES pH 6.6, 100 mM NaCl); Supplementary Fig. 3: 25 mM NaCl, 2 mM DTT, pH 6.3, 303 K. The following applies: protein: recombinant; tags: N-terminal 6xHis, TEV-cleaved; label: selective 13C-ribose in some structure samples; unlabeled in titrations.

Data set [7] has as its target T7, DND1 RRM12 (tandem RRMs) WT (human, UniProt Q8IYX4 12-235).
T7 sequence: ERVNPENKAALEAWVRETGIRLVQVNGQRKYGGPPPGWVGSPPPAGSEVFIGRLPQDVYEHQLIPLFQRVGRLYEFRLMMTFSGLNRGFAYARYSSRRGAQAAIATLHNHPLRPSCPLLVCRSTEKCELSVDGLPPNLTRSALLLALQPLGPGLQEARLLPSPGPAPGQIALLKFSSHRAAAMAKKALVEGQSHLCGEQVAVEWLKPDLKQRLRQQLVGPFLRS
As to the kind of experiment: ITC; N = 1.04; text and Supplementary Table 2 print 0.68; ITC: 100 mM potassium phosphate pH 6.6, 1 mM 2-mercaptoethanol, 25 C; NMR: 100 mM potassium phosphate pH 6.6, 1 mM DTT, 298 K (or 20 mM MES pH 6.6, 100 mM NaCl); Supplementary Fig. 3: 25 mM NaCl, 2 mM DTT, pH 6.3, 303 K. The conditions noted are these: protein: recombinant; tags: N-terminal 6xHis, TEV-cleaved; label: selective 13C-ribose in some structure samples; unlabeled in titrations.

Data set [8] concerns the target T7, DND1 RRM12 (tandem RRMs) WT. Description: NMR titration; highest affinity of the three oligos; ITC: 100 mM potassium phosphate pH 6.6, 1 mM 2-mercaptoethanol, 25 C; NMR: 100 mM potassium phosphate pH 6.6, 1 mM DTT, 298 K (or 20 mM MES pH 6.6, 100 mM NaCl); Supplementary Fig. 3: 25 mM NaCl, 2 mM DTT, pH 6.3, 303 K. The following applies: protein: recombinant; tags: N-terminal 6xHis, TEV-cleaved.

Turning to UUUUUAC (ssRNA), the binding result in data set [1] and in data set [2] was “no binding” throughout.

For CUUAUUUG (ssRNA), the Kd in data set [3] turned out to be 2.6 ± 0.1 µM; in data set [7], 0.69 ± 0.03 µM. For the same molecule, the binding result in data set [4] was “no binding”; in data set [5], “no binding”; in data set [6] it was “binds”.

UUUUUCC (ssRNA): the binding result in data set [1] and in data set [2] was “no binding” throughout.

With UUAUUU (ssRNA), the binding result is reported as “no binding” in data set [1] and “binds” in data set [8].
